Measured values: IntAct's records for PubMed 11781573

B1: Erythropoietin receptor (Homo sapiens), P19235 (parent)
chain: MDHLGASLWPQVGSLCLLLAGAAWAPPPNLPDPKFESKAALLAARGPEELLCFTERLEDLVCFWEEAASAGVGPGNYSFSYQLEDEPWKLCRLHQAPTARGAVRFWCSLPTADTSSFVPLELRVTAASGAPRYHRVIHINEVVLLDAPVGLVARLADESGHVVLRWLPPPETPMTSHIRYEVDVSAGNGAGSVQRVEILEGRTECVLSNLRGRTRYTFAVRARMAEPSFGGFWSAWSEPVSLLTPSDLDPLILTLSLILVVILVLLTVLALLSHRRALKQKIWPGIPSPESEFEGLFTTHKGNFQLWLYQNDGCLWWSPCTPFTEDPPASLEVLSERCWGTMQAVEPGTDDEGPLLEPVGSEHAQDTYLVLDKWLLPRNPPSEDLPGPGGSVDIVAMDEGSEASSCSSALASKPSPEGASAASFEYTILDPSSQLLRPWTLCPELPPTPPHLKYLYLVVSDSGISTDYSSGDSQGAQGGLSDGPYSNPYENSLIPAAEPLPPSYVACS
partner: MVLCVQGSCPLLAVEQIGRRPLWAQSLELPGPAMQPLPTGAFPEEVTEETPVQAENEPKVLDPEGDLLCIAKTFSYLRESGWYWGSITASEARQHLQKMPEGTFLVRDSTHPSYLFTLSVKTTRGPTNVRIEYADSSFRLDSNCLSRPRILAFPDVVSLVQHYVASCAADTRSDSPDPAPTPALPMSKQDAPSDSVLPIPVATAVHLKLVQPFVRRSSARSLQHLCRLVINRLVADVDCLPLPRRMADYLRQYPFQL
B2: Erythropoietin receptor (Homo sapiens), P19235 (parent)
chain: B1 chain

Variants of: B1
Conditions: with cish_mouse Cish

Variant | effect of a mutation on the interaction
MDHLGASLWPQVGSLCLLLAGAAWAPPPNLPDPKFESKAALLAARGPEELLCFTERLEDLVCFWEEAASAGVGPGNYSFSYQLEDEPWKLCRLHQAPTARGAVRFWCSLPTADTSSFVPLELRVTAASGAPRYHRVIHINEVVLLDAPVGLVARLADESGHVVLRWLPPPETPMTSHIRYEVDVSAGNGAGSVQRVEILEGRTECVLSNLRGRTRYTFAVRARMAEPSFGGFWSAWSEPVSLLTPSDLDPLILTLSLILVVILVLLTVLALLSHRRALKQKIWPGIPSPESEFEGLFTTHKGNFQLWLYQNDGCLWWSPCTPFTEDPPASLEVLSERCWGTMQAVEPGTDDEGPLLEPVGSEHAQDTYLVLDKWLLPRNPPSEDLPGPGGSVDIVAMDEGSEASSCSSALASKPSPEGASAASFEFTILDPSSQLLRPWTLCPELPPTPPHLKYLYLVVSDSGISTDYSSGDSQGAQGGLSDGPYSNPYENSLIPAAEPLPPSYVACS [Y426F] | decreasing interaction

Variants of: B2
Conditions: with socs2_human SOCS2, O14508
Chain of socs2_human SOCS2, O14508 (O14508 whole entry): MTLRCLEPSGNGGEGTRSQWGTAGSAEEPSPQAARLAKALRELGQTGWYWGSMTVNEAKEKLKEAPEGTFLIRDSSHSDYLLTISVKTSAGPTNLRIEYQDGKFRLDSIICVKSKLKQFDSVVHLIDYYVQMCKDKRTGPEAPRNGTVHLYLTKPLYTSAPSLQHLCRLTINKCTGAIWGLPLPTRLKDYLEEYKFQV

Variant | effect of a mutation on the interaction
MDHLGASLWPQVGSLCLLLAGAAWAPPPNLPDPKFESKAALLAARGPEELLCFTERLEDLVCFWEEAASAGVGPGNYSFSYQLEDEPWKLCRLHQAPTARGAVRFWCSLPTADTSSFVPLELRVTAASGAPRYHRVIHINEVVLLDAPVGLVARLADESGHVVLRWLPPPETPMTSHIRYEVDVSAGNGAGSVQRVEILEGRTECVLSNLRGRTRYTFAVRARMAEPSFGGFWSAWSEPVSLLTPSDLDPLILTLSLILVVILVLLTVLALLSHRRALKQKIWPGIPSPESEFEGLFTTHKGNFQLWLYQNDGCLWWSPCTPFTEDPPASLEVLSERCWGTMQAVEPGTDDEGPLLEPVGSEHAQDTYLVLDKWLLPRNPPSEDLPGPGGSVDIVAMDEGSEASSCSSALASKPSPEGASAASFEFTILDPSSQLLRPWTLCPELPPTPPHLKYLYLVVSDSGISTDYSSGDSQGAQGGLSDGPYSNPYENSLIPAAEPLPPSYVACS [Y426F] | decreasing interaction
